Source: US20230348605A1

Target: purified human TNC protein (human) (UniProt P24821)
Assay: BLI

B1: NJT3 (VHH)
VHH: QVQLVETGGGLAQAGGSLRLSCAASGRTLSGYAMGWFRQAPGKEREFVAAISWSGRNTYYDYTVQGRFTISKDNAKNTVNLQMNSLKPEDTAVYYCAVSRSLDEFGDGYEMDYWGDGTQVTVSS
modifications: labelled with Texas Red via sortase-mediated tagging in the ex vivo imaging assay
Kd: < 1 pM

B2: NJT4 (VHH)
VHH: QVQLVESGGGLVQPGGSLRLSCAASGFTFSSYTMRWYRQAPGKERELVAFIGVAGGSTKYADSVKGRFTISRDNTKNTVYLQMNTLKPEDTAVYYCYAPLTPYWGQGTQVTVSS
modifications: labelled with Texas Red via sortase-mediated tagging in the ex vivo imaging assay
Kd: < 1 pM

B3: NJT6 (VHH)
VHH: QVQLVETGGDLVQPGGSLRLSCAASGLTLDYYAIGWVRQAPGKEREGVSCITPQDGNTYYDDSVMGRFTILRDNAKNMVYLQMNNLKPEDTAVYFCAAAGALTLDPSEYEYWGQGTQVTVSS
modifications: labelled with Texas Red or 64Cu via sortase-mediated tagging in the imaging assays
Kd: < 1 pM
